{"source": "patent US20190255310A1", "about": "“KIT FOR IN SITU DELIVERY OF A COMPOUND OF INTEREST” (Defymed, priority 2016, published 2019)", "tested_on": "diabetic rats", "test": "Insulin delivery through catheter and implanted pocket in diabetic rats, plasmatic glycaemia", "format": "in vivo, rat", "protocol": "Rapid Insulin was injected through a catheter linked to a pocket as disclosed in the examples of WO 2015/086550 (three layer, including one of non-woven polymer).\nThe pocket was implanted in the intraperitoneal cavity of rats."}
{"substance": "insulin", "values": [{"measurement": "diffusion of insulin out of the device", "setting": "inferred from glycaemia kinetics, pocket implanted intraperitoneally", "value": "instant diffusion"}, {"measurement": "plasmatic glycaemia", "setting": "insulin injected through catheter linked to pocket implanted in the intraperitoneal cavity (FIG. 2, circles)", "value": "rapid decrease of plasmatic glycaemia"}]}
